Assay results taken from the DeepSol protein solubility set.

Assay: soluble on expression in E. coli; label from the status in PepcDB or PDB records
With “MGSDKIHHHHHHMKNFSLWCDFIENSFLDNEFLNLLSHGINGATSNPAIFKNAILNSPIYKDKILKLKEKKTKDIYEELAISDIQKAADKLAPLFYQKNDGFISIEIDPRLHDNTTLSLGEAKRLYSAIGKENIMIKIPATKASYEVMYELMKNGISVNATLIFSLEQSQKCFEALNAGLVEFRKNNIALKEQNTRTPQAVISIFVSRFDRLLNPKAKEQNRIGILNANLAYNNIYSKNEPNIRALFASTGVKGDDLPKDYYIKELLFENSVNTAPLDAIEAFKGKMHFKKPLMNFEIYTELNQIISQSEREKACNDLLSDGLEQFCIAFEDILKAL” the “soluble on expression in E. coli” value was “not soluble”.
For “MGSDKIHHHHHHMKNRAGEYRTNLTGELQYRSFLPYPLPPSPPIELDEETIKLLAKANRSIGILEGMSRQIPDIDLFVSMYVRKEALLSSQIEGTQVTLDDILDPNIEENTNQNVADVINYIKASHYGSARLAELPLCNRLLKEIHEILMQDVRGGEKSPGEFRSSQNWIGPAGSTLRDARYIPPHPEDMLEAMSDLEKFINSEDELDPLIKIALIHYQFETIHPFLDGNGRIGRLLIALYLINQNLLSHETLYISYFLKRNRIEYYDRLTEVRSKGNFEQWLKFFLLAAYESAQDAIDTIERILKLHYKNVEVVKNTGKASKTVMKVFNYLESSPIIDIKKTSLALELSFNTVSNAVNKLVELGILKQTENVRRSRVFAYEEYLEILRKDT”, the “soluble on expression in E. coli” value was “not soluble”.
With “MGSDKIHHHHHHMKNRIEDRRIKYTKMVIKQSLITLLKNKPINKVTVTEICNLADINRSTFYTHYSNPYDLLDSIEEELFEEVKSSLRDSEGETKIENTVNEIFKAIAKNKELFKIFFSSHRDYGFLIKFFGAVYNNSIDNFKSAFKSNNDAQLEYLYNYILTGNASISYKWIKNGLKESPEEMASLVNRLIVHTMSFIK” the “soluble on expression in E. coli” value was “not soluble”.
With “MGSDKIHHHHHHMKQFSGLSRTIQGNHLLDTCAIDILKIGHRPLVLCAKQEYNTTVESFVKVLTCHGLIVKIVYMEEWDQNSVEECGEVGFRHRADHIIGIGNSSVAACTKAVADLLDLPAVLIPTSPFTTLPWVSVENKKRERPLFNESIQLIIADREQLLTQPTSELINGVVNTLLYLAAIKEVKRNHLFSLVDDILIRSFESVLLRGSLQAIEDFEARILSKEVQDVLEVLSTCVTLDLPSDAWDVIQQIESKLSERREDLVDEPLKRNVVLYLLLSYLTQESEEFQARLKWCQQLLLSANSSNLLSLEAVLKEIALEMGEDGSTRC” the “soluble on expression in E. coli” value was “not soluble”.
With “MGSDKIHHHHHHMKQYLRLRAFKAISFDLDDTLYHNTPYLQLATDKFFAFLNQNYPKTQTLHAQGWLTIKHDLFDLHPELKHDTSAARYAMVHDGLMSLGYKESEASEGAQKSMACFHFYRSDFTLDDKVLNLLKQLAESVTLVGISNGNVDASRIGLSESLAFVQHPGHGVKMKPHGDMFELACQRLNISPAELLHVGDHQMADVSGARRAGCQSVWFNPEKHPLTRRTGSILPHVELDDLNKLLNLV” the “soluble on expression in E. coli” value was “not soluble”.
In the case of “MGSDKIHHHHHHMKRLITTGAAFLLAATLSACNGNNTSETQGDRTEQAETVQADLFSADSAYTFVQRQVNFGPRIPGTAPHRACGDWLVATLRSFGAAVQEQTAEIKAHDGTMLPMRNIIASYRPEATGRMLLMAHWDTRPVCDQDANPAMHTETFDGADDGGSGVGVLLEIARYLGQQKDLGMGIDIVFFDTEDYGSYGDDESWCLGSQYWSRNPHVAGYKAEAGILLDMVGAKGATFYWEYFSKSYAPGLISAVWQTAAALGYGNYFIQADGGALTDDHVPVIKNLGIPCIDIINYSSKNEHGFGDHWHTQRDNMQIIDKNVLDAVGETVIRYLDEQVKAASH”, the “soluble on expression in E. coli” value is reported as “not soluble”.
For “MGSDKIHHHHHHMKRPGFIERHHLWTEIQKEASEKIKTIVKEQDLLLIRTAWSDQHGIVRSKSLLPQAFFSALENGMQISTGTFLLDTGGAIVFNPFVPGGSLDMPLMTGAPNLVAVPDPDTFKIVPWAKRTGFILCDEYFQNGQPMPFSSRGILRQSLIDLHQRGLEHIVGLEVEWYLAKLEDPMLAIANVGSSGKPGEPAKVSAVDHSFQYLLESHNPEIQDLLGLLAENLVEMKLPLRSVENEGGVGQFEFTFDPIPALQAADTMMIFRMATKQICRQQGYIASFMCRPGLQGSSSNGWHLHQSLVDLTTGENAFMSANSQTLTSDLAKHFVGGLLKHANAASVFTTPTINGYKRFRPYSLAPDRAGWGLENRGAMIRLQGGFDDPSTHIENRVGEPAANPYLYMASQLISGLDGVDCKLDPGSPTEEPYTTENPILPKSLSEAISYLSQSELFPQKMGQQFINFIIKMKESEINRFLQSVADQPPEEYLKQVTNWEQREYFELF”, the “soluble on expression in E. coli” value was “not soluble”.
With “MGSDKIHHHHHHMKSYFVTMGFNETFLLRLLNETSAQKEDSLVIVVPSPIVSGTRAAIESLRAQISRLNYPPPRIYEIEITDFNLALSKILDIILTLPEPIISDLTMGMRMINTLILLGIIVSRKRFTVYVRDEGGGSRVISFNDNTIRALMRDYSREEMKLLNVLYETKGTGITELAKMLDKSEKTLINKIAELKKFGILTQKGKDRKVELNELGLNVIKLNKSVIESSKSSEELVKENKGKEVNIPY” the “soluble on expression in E. coli” value was “not soluble”.
For “MGSDKIHHHHHHMKTIKGPGIFLAQFIGTQAPFNTLAGIAQWAAGLGYKALQIPCNHPAIFDVERAAASQTYCDEVSGILAEHGLVISELSTHLEGQLVAVHPAYDAAFDAFAPAALHGDPQARQRWAVEKVRQAAVASGRLGLQAHATFSGALAWPFFYPWPPHNQPLLDEAFAELARRWRPLLDLFDEQGVDVCYEIHPGEDLHDGVTFERFLALVDNHPRCNMLYDPSHLHLQQMDYLAYIDIYHARIKAFHVKDAEFRRNGRNGVYGGYQPWQQRAGRFRSPGDGQIDFKGVFSKLTEYDFAGWAVLEWECCLKDSETGAREGSEFIRRHIIPVAGRAFDDFAAGGRE”, the “soluble on expression in E. coli” value was “not soluble”.
For “MGSDKIHHHHHHMKVFITGGTGFVGSAVVQELVANGFEVVGLARSETSAQKLISWGAQPVRGSLTSLSTLATAAAQADAIIHLGFNNDFRHFFQAGAMDRRAIETMGRAISGTNKPLVVTYGTTGIRKHVETEHEVADTGLLKWLTPRKSEIVARQLMAQNINAFVVRLSPAVHGAGDMGFTRTVIERAKKSHRAEYFGLGTHAWSAVHRLDAAHLFYLVTMYGLEHPTTNERVFNAVAEESITIAAIARTISRKLNVPLKAKYNPLSFGDTAMLYLINCPTSSQLTRQILGWVPVQPDLLTDISSSRY”, the “soluble on expression in E. coli” value was “not soluble”.
For “MGSDKIHHHHHHMKVKLLSALNDNNVDMAQTNSQRQLAMTIFAIAGEFDQNLPLNLCLILDRSGSMHGQPIKTVIQAVEGLIDRLKVGDRISVVAFSGSVEVIIPNQVIEDPESIKSQIKSKLSASGGTAIAEGLELGITELMKGTRGAVSQAFLLTDGHGESSLRIWKWDIGRDDNKRCLKLAQKAAKLNLTINTFGFGNSWNQDLLEKIADVGGGTLAHIEHPEQAVEQFSRLFGRIQSIGLTNAYLLLSLVPNVRLAELKPIAQVAPDTIELPVERETDGSFAVRLGDLMQDVERVVLANIYLGQLPEGKQAIGHLQIRYDDPMVNQEDLLSPLMPIYADVVRAYQPASNPQVQQSILALAKYRQTQLAEAKLLQGDRTGAATMLQTAAKTALQIGDKGAATVLQTSATRLQAGEELSEADLKKTRIVSKTVLQE”, the “soluble on expression in E. coli” value was “not soluble”.
With “MGSDKIHHHHHHMKVLLYLEAEEYLKKSGIGRAIKHQEKALQIAGIDYTTNPTDDFDLVHMNTYGIRSWLLMSKAKKTGKKVIMHGHSTEEDFRNSFIGSNLVSPLFKWYLCRFYQKADAIITPTDYSKQLIKAYGIKKPIFVLSNGIDLSRYQRSEKKESAFRHYFHLSKDDKVVMGAGLYFMRKGIDQFVEVAAKMPDIRFIWFGETNKWVIPRKVRQIVTKQHPSNVTFAGYIKGDVYEGAMSASDAFFFPSREETEGIVVLEALASHQHVVLRDIPVYHGWVTEDSVELATDVDGFVEKLDKVLSGKSDKIKEGYHVAESRSIERIAHELASVYQKVMEL” the “soluble on expression in E. coli” value was “not soluble”.
In the case of “MGSDKIHHHHHHMKVLVPATTTNLGAGFDVFGLALDLFNEVEFSFDTKETTIESTGKYASDLKDHNLFFEVLRFFERKTGYRVPPVRIKQTCNIPVSSGLGSSAAVIVAALHIANEGTGRNLSREDLMKLAVELEGHPDNVVPAFTGGLVVCYQNGSHLDFEKFEIDLSLTFLVPNFPVCTNEMRKILPEKVPFEDAVFNIKNSCQFLAKIAAGKIKEALKYVGDRLHQNYRINGNKKMKEFVEAILSKNPEYWFVSGSGPSVCSNINDFEGIPYLKDVLKLRVNNRGMIVSE”, the “soluble on expression in E. coli” value is reported as “not soluble”.
With “MGSDKIHHHHHHMKVLVVDNSRWWGGAEKNLQTLVDNRSNAIEFNVLSDYPMSHNITYRDFCGVRYRFDNSYFIRYLDNKYQIKGMRIFRLIYKSLYLIPSLVRYNPDIVHFNLYRSSDILDIIVCKILRKKVVLHIRSLANRIKIAPLTIKLADAVICVSKSVKQGFSFTGNKYHVIYNGIDSKYYHLVPQDQAREKLGINLTSFVIGSIGNLEREKGHDVAVKALKKIIDDGNVVVALIIVGKDSTINESETKRILTLSKDLGVQGHIKIFSISHKDIHYVYSACDIVLTLCIDGEAFGMIPLEAAMHNRPVIATNVGACRETIIHNQTGLLCEPNSPVALVQAIDTIMKDKKYCDQLTESARNRVLHKYSADAYRDSVYKIYITITKENKRKL” the “soluble on expression in E. coli” value was “not soluble”.
For “MGSDKIHHHHHHMKVQFLGAAQTVTGSCYMIEANGVRFAIDCGMHQGNTEIEKRNDDTEIYRPSDIAFFLVTHAHIDHTGLLPAMTRNGFTGPIYCTEPTADLLGIMLQDSAHIQEMEAEWQSRKLSRNGRIKKVEPLYTTEDATRAAEMLRPVDYGNSFEPSPGIRVTYKDAGHILGSAFLELEVTENGRPTRLVFSGDLGRPDALIVNDPQKAAPADYLFLESTYGDRDHKDPRFSRDELAEAIAYSYGNGEKVIIPAFAVERTQEVLYTLYLLHKEGRLPADMPVFVDSPLAIRATEIFRKHPKYYDDNMKKLVDSGEDPLALPNLKYTLNTQDSQALNVRSGPAVIISASGMCNAGRIKHHLRHNLWRPGASIVFVGYQGVGTPGRKIVDGNATVRLFNEDIAVKAKVFTIGSFSAHAGQSQILEWVSAFAHPQMEVFLVHGEEKAQTTLAGLLRERFNLPVSIPGYLEEVTLKPGRESLHQTDEARAHPDVDWEFLLAETEGKVAQLRKRLAGVEKRPWVEQTDIRERLVEINGELLHFLSQL”, the “soluble on expression in E. coli” value was “not soluble”.
With “MGSDKIHHHHHHMKVQRIQAIENLIHEKGSASLDDLCKQFNVSKNTIRRDIAKLLQKNTIKKVYGGVVSIYNNPEEIRPFENRDTENHAEKQLIGKAAADFIEENDLIFIDSGTTTSCLAAALPTDKEITIITNSLDVINFASEMDNVKLIVIGSTFKTSTKSFVGVENWGFFEKYNITKAFMAATALSTTHGVMNSDILEYEIKRHMMEKAREKFLLVDHTKVDKSALLTYGELAEFDWLVTSKEMAGGCLGYCADVGVLVRLV” the “soluble on expression in E. coli” value was “not soluble”.
With “MGSDKIHHHHHHMKVVIISGGNSPSYTLIKKELRESEYLIAADSGANTLFKYDVFPDYIIGDLDSIKTVALNYYKNRKVSILQYPPEKDYTDTEIAVNKAIDLGATEIVLLGCTGSRIDHLFGNIGMLLKCLKLGVSCVIKDDNNTIFLTETSIKIRGSLGKTFSIIPYSEEISDLTIIGAKYPLNNYKMKIGSAIGISNVFEEEEVKVQFNSGKILIVYPTD” the “soluble on expression in E. coli” value was “not soluble”.
With “MGSDKIHHHHHHMKVVKFGGSSLASGAQLDKVFHIVTSDPARKAVVVSAPGKHYAEDTKVTDLLIACAEQYLATGSAPELAEAVVERYALIANELQLGQSIIEKIRDDLFTLLEGDKSNPEQYLDAVKASGEDNNAKLIAAYFRYKGVKAEYVNPKDAGLFVTNEPGNAQVLPESYQNLYRLRERDGLIIFPGFFGFSKDGDVITFSRSGSDITGSILANGLQADLYENFTDVDAVYSVNPSFVENPKEISELTYREMRELSYAGFSVFHDEALIPAFRAGIPVQIKNTNNPSAEGTRVVSKRDNTNGPVVGIASDTGFCSIYISKYLMNREIGFGRRALQILEEHGLTYEHVPSGIDDMTIILRQGQMDAATERSVIKRIEEDLHADEVIVEHHLALIMVVGEAMRHNVGTTARAAKALSEAQVNIEMINQGSSEVSMMFGVKEAEERKAVQALYQEFFAGVLIS” the “soluble on expression in E. coli” value was “not soluble”.
